Measured values taken from CN117069840A (BEIJING BIOSYSTEMS BIOLOGICAL TECH CO LTD, dated 2023).

Tests used:
Assay in all cases: indirect ELISA, antigen coated at 1 μg/mL, hybridoma supernatant, HRP-anti-mouse IgG
人源IL-7蛋白 = molecular target: T1, 人源IL-7蛋白 (human, UniProt P13232 26-177)
T1 sequence (looked up): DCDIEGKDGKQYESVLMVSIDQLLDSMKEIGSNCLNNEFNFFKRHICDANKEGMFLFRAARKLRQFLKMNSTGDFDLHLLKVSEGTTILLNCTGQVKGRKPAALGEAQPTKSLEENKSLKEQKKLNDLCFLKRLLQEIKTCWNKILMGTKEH

人源IL-4蛋白 = molecular target: T2, 人源IL-4蛋白 (human, UniProt P05112 25-153)
T2 sequence (looked up): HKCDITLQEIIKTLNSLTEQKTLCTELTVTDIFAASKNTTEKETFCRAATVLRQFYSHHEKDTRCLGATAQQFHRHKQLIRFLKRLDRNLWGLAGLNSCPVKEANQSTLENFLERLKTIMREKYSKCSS

人源IL-6蛋白 = 人源IL-6蛋白 (human, UniProt P05231 30-212)
人源IL-2蛋白 = 人源IL-2蛋白 (human, UniProt P60568 21-153)
人源IL-2蛋白, sequence (P60568 21-153 limits assumed): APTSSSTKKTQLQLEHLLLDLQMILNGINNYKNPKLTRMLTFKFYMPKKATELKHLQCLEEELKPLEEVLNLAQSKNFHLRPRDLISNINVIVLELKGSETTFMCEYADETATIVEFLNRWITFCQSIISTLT

人源TNF-alpha蛋白 = molecular target: T3, 人源TNF-alpha蛋白 (human, UniProt P01375 77-233)
T3 construct: also called TNF-α
T3 sequence (P01375 77-233 limits assumed): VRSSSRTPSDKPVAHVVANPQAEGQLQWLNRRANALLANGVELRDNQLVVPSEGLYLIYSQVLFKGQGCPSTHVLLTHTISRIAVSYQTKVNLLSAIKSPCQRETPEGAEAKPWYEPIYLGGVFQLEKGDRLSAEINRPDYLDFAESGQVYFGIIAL

人源GM-CSF蛋白 = 人源GM-CSF蛋白 (human, UniProt P04141 18-144)
人源GM-CSF蛋白, sequence (P04141 18-144 limits assumed): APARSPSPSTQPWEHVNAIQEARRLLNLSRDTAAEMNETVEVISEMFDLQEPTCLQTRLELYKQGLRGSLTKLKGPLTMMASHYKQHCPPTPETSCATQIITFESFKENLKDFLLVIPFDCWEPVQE

人源IL-15蛋白 = 人源IL-15蛋白 (human, UniProt P40933 49-162)
人源IL-15蛋白, sequence (P40933 49-162 limits assumed): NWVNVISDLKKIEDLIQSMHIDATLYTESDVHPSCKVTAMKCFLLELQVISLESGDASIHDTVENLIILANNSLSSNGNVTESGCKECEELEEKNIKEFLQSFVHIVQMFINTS

人源IL-10蛋白 = 人源IL-10蛋白 (human, UniProt P22301 19-178)
人源IL-10蛋白, sequence (P22301 19-178 limits assumed): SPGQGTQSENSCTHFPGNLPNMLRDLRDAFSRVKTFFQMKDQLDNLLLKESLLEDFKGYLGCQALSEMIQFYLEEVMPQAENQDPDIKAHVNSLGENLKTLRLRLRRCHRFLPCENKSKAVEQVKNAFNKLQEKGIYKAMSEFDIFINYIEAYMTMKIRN

Measured: binding result

B1: 抗体13A6G6 (antibody, V domains shown)
VH: EVKLEESGGGLVQPGGSTKLSCAASGFTFSDAWMNWVRQSPEKGLEWIAEIRTKTSNHAAYYAASVKGRFTISRDDSKSSVYLQMNSLRPEDTGIYYCTRFDYWGQGTTLTVSS
VL: DVQITQSPSYLAASPGETITINCRASKNINKHLAWYHDKPGKTNKLLIYSGSTLQSGTPSRFSGSGSGTDFTLTISSLEPEDFAVYYCQQHNEYPYTFGGGTKLAIK
notes: Mouse monoclonal antibody from a hybridoma; also called Clone 13A6G6; 克隆号13A6G6
no binding: all assays above

B2: 抗体3G6D7 (antibody, V domains shown)
VH: EIQLQQSGPELVKPGASVKVSCKASGYGFTSYNMNWVKQSHGKSLEWIGYIDPYNGGSGYNQKFKGKATLTVDKSSSTAYMHLISLTSDDSAVYYCARGDYDGGYYGMDYWGQGTSVTVSS
VL: DILLTQSPAILSVSPGESVSFSCRASQSVGTSIHWFQQRTNGSPRLLIKYASESISGIPSRFSGSGSGTDFTLIINSVESEDIADYYCQQSNGWPFTFGSGTKLEIK
notes: Mouse monoclonal antibody from a hybridoma; also called Clone 3G6D7; 克隆号3G6D7
no binding: all assays above
